In this experiment the target is T1, stabilised, trimeric ectodomain of the SARS-CoV-2 spike glycoprotein (FUR 2P) (SARS-CoV-2, Wuhan-Hu-1 (YP_009724390.1), R682S | R685S | K986P | V987P).
T1 construct: also called S trimer; trimeric spike
The experiment can be described thus: BLI. The note with it: both partners purified.

As usually defined, the Kd is a measure of binding affinity in units of concentration. A higher Kd goes with a looser complex.

B1: CR3022 Fab (tag cleaved with TEV, as used in binding assays) (Fab, V domains shown)
VH: QMQLVQSGTEVKKPGESLKISCKGSGYGFITYWIGWVRQMPGKGLEWMGIIYPGDSETRYSPSFQGQVTISADKSINTAYLQWSSLKASDTAIYYCAGGSGISTPMDVWGQGTTVTVAS
VL: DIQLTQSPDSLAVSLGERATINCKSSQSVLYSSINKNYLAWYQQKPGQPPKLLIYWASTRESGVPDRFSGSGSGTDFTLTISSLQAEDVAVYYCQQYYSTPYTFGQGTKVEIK
The molecule B1 registered a Kd of 80 nM.

Values taken from article PMC7577971, “Antibody-mediated disruption of the SARS-CoV-2 spike glycoprotein” (Nature Communications, 2020).
